# Data from patent US20210253718A1, “FRIZZLED5 PROTEIN-BINDING AGENTS” (Modmab Therapeutics Corporation, priority 2016, published 2021).
# Changes are numbered by the printed parent chain.
# B1: Fab-2898: anti-FZD5 Fab with antibody variable region Fv-2898; CDR SEQ ID NOs: 35, 36, 37, 76, 113, 152 (antibody, V domains shown)
# VH: EVQLVESGGGLVQPGGSLRLSCAASGFNIYSYSMHWVRQAPGKGLEWVASIYSSSGSTSYADSVKGRFTISADTSKNTAYLQMNSLRAEDTAVYYCARAVWGLDYWGQGTLVTVSS
# VL: DIQMTQSPSSLSASVGDRVTITCRASQSVSSAVAWYQQKPGKAPKLLIYSASSLYSGVPSRFSGSRSGTDFTLTISSLQPEDFATYYCQQWWGYYSLITFGQGTKVEIK
# B2: Fab-2899: anti-FZD5 Fab with antibody variable region Fv-2899; CDR SEQ ID NOs: 35, 36, 38, 77, 114, 153 (antibody, V domains shown)
# VH: EVQLVESGGGLVQPGGSLRLSCAASGFNLYYYYMHWVRQAPGKGLEWVASIYPSSGSTSYADSVKGRFTISADTSKNTAYLQMNSLRAEDTAVYYCARGALDYWGQGTLVTVSS
# VL: B1 VL with W92Y, G93S, Y94S, S96G
# B3: Fab-2902: anti-FZD5 Fab with antibody variable region Fv-2902; CDR SEQ ID NOs: 35, 36, 41, 80, 117, 153 (antibody, V domains shown)
# VH: B2 VH with L29I, Y30S, M34I, Y52S, P53S, G56S
# VL: B1 VL with W92Y, G93A, Y94F, Y95G, S96A
# B4: Fab-2906: anti-FZD5 Fab with antibody variable region Fv-2906; CDR SEQ ID NOs: 35, 36, 45, 84, 121, 158 (antibody, V domains shown)
# VH: EVQLVESGGGLVQPGGSLRLSCAASGFNFSSSSIHWVRQAPGKGLEWVAYISSSYGYTYYADSVKGRFTISADTSKNTAYLQMNSLRAEDTAVYYCARTVRGSKKPYFSGWAMDYWGQGTLVTVSS
# VL: DIQMTQSPSSLSASVGDRVTITCRASQSVSSAVAWYQQKPGKAPKLLIYSASSLYSGVPSRFSGSRSGTDFTLTISSLQPEDFATYYCQQWSWGFLITFGQGTKVEIK
# B5: Fab-2911: anti-FZD5 Fab with antibody variable region Fv-2911; CDR SEQ ID NOs: 35, 36, 50, 89, 126, 163 (antibody, V domains shown)
# VH: EVQLVESGGGLVQPGGSLRLSCAASGFNIYYSSMHWVRQAPGKGLEWVAYIYPYSGYTSYADSVKGRFTISADTSKNTAYLQMNSLRAEDTAVYYCARYFWWYGFDYWGQGTLVTVSS
# VL: DIQMTQSPSSLSASVGDRVTITCRASQSVSSAVAWYQQKPGKAPKLLIYSASSLYSGVPSRFSGSRSGTDFTLTISSLQPEDFATYYCQQGPWYPFTFGQGTKVEIK
# B6: Fab-2912: anti-FZD5 Fab with antibody variable region Fv-2912; CDR SEQ ID NOs: 35, 36, 51, 90, 127, 164 (antibody, V domains shown)
# VH: B4 VH with F29I, S31Y, S33Y, Y50S, Y55S, Y59S
# VL: B4 VL with W91F, S92Y, W93F, G94P, F95Y
# B7: Fab-2914: anti-FZD5 Fab with antibody variable region Fv-2914; CDR SEQ ID NOs: 35, 36, 53, 92, 129, 162 (antibody, V domains shown)
# VH: B2 VH with L29I, Y32S, G56S, L101M
# VL: B4 VL with S92Y, W93Y, F95S
# B8: Fab-2916: anti-FZD5 Fab with antibody variable region Fv-2916; CDR SEQ ID NOs: 35, 36, 55, 94, 131, 167 (antibody, V domains shown)
# VH: EVQLVESGGGLVQPGGSLRLSCAASGFNISYSSIHWVRQAPGKGLEWVASIYPSYSYTYYADSVKGRFTISADTSKNTAYLQMNSLRAEDTAVYYCARYGYYGMDYWGQGTLVTVSS
# VL: B1 VL with W92Y, G93H, Y95P, S96Y
# Molecular target: T1, FZD7 CRD (Homo sapiens, UniProt O75084)
# T1 construct: D45-S169; GPI anchor signal (C); expressed in transfected cells; host or cells: CHO cells, lentiviral pLenti-puro
# Experiment: Immunofluorescence of anti-FZD5 Fab binding to CHO cells overexpressing Frizzled CRD
# Parameters: key: −: no binding; +: very weak binder; ++: weak binder; +++: good binder; ++++: very good binder
# Settings: not given
# Method in brief: (§1)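 Specificity of anti-FZD5 Fabs was tested on CHO cells displaying membrane-anchored Frizzled CRDs (myc-tagged, GPI-linked), one family member per line. Detection was by immunofluorescence.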
row,Molecule,"Immunofluorescence binding, Frizzled CRD overexpressed on CHO cells: FZD7"
1,B1,+++
2,B2,+++
3,B3,+
4,B4,+
5,B5,+++
6,B6,++++
7,B7,++++
8,B8,++++

# Molecular target: T2, FZD3 CRD (Homo sapiens, UniProt Q9NPG1)
# T2 construct: CRD of FZD1, FZD2, FZD3, FZD4, FZD5, FZD6, FZD7, FZD8, FZD9 or FZD10; GPI anchor signal (C); expressed in transfected cells; host or cells: CHO cells, lentiviral pLenti-puro
# T2 sequence (Q9NPG1 23-136 limits assumed): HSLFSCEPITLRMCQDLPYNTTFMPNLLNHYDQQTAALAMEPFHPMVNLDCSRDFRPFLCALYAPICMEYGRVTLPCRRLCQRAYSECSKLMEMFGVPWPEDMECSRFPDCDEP
# Experiment: as above
# Parameters: key: −: no binding; +: very weak binder; ++: weak binder; +++: good binder; ++++: very good binder
# Settings: not given
# Method in brief: as §1
row,Molecule,"Immunofluorescence binding, Frizzled CRD overexpressed on CHO cells: FZD3"
1,B1,−
2,B2,−
3,B3,−
4,B4,−
5,B5,−
6,B6,−
7,B7,−
8,B8,−

# Molecular target: T3, FZD1 CRD (Homo sapiens, UniProt Q9UP38)
# T3 construct: D112-P238; GPI anchor signal (C); expressed in transfected cells; host or cells: CHO cells, lentiviral pLenti-puro
# Experiment: as above
# Parameters: key: −: no binding; +: very weak binder; ++: weak binder; +++: good binder; ++++: very good binder
# Settings: not given
# Method in brief: as §1
row,Molecule,"Immunofluorescence binding, Frizzled CRD overexpressed on CHO cells: FZD1"
1,B1,++++
2,B2,+++
3,B3,−
4,B4,−
5,B5,++
6,B6,+
7,B7,++
8,B8,++++

# Molecular target: T4, FZD8 CRD (Homo sapiens, UniProt Q9H461)
# T4 construct: K31-D155; GPI anchor signal (C); expressed in transfected cells; host or cells: CHO cells, lentiviral pLenti-puro
# T4 sequence (Q9H461 31-155): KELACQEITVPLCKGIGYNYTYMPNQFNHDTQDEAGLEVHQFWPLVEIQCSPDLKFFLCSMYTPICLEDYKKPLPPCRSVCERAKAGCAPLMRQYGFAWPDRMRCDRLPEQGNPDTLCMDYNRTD
# Experiment: as above
# Parameters: key: −: no binding; +: very weak binder; ++: weak binder; +++: good binder; ++++: very good binder
# Settings: not given
# Method in brief: as §1
row,Molecule,"Immunofluorescence binding, Frizzled CRD overexpressed on CHO cells: FZD8"
1,B1,+
2,B2,+
3,B3,++
4,B4,+
5,B5,−
6,B6,+
7,B7,++
8,B8,+

# System: ASPC-1 cells
# Experiment: Effect of anti-FZD5 Fabs on proliferation of pancreatic cancer cell lines (percent growth inhibition)
# Type: cell-based, human
# Settings: Fab 10 μg/ml
# Protocol: (§2) The effect of presently disclosed anti-FZD5 Fabs on proliferation of RNF43 loss-of-function mutant pancreatic cancer cell lines HPAFII, PATU8988S and ASPC-1; and on pancreatic cancer cell line RWP1, was tested at […] and 10 μg/ml.
row,Molecule,"percent growth inhibition, ASPC-1 10 μg/ml [%]"
1,B1,25.15
2,B2,33.63
3,B3,17.39
4,B4,35.20
5,B6,1.76
6,B7,38.30
7,B8,42.26

# System: RWP1 cells
# Experiment: as above
# Type: cell-based, human
# Settings: Fab 10 μg/ml
# Protocol: as §2
row,Molecule,"percent growth inhibition, RWP1 10 μg/ml [%]"
1,B1,26.93
2,B2,47.83
3,B3,31.22
4,B4,5.47
5,B6,27.25
6,B7,78.98
7,B8,30.61

# System: HPAFII cells
# Experiment: as above
# Type: cell-based, human
# Settings: Fab 2 μg/ml
# Protocol: as §2
row,Molecule,"percent growth inhibition, HPAFII 2 μg/ml [%]"
1,B1,15.80
2,B2,36.18
3,B3,25.42
4,B4,15.24
5,B5,2.08
6,B6,7.76
7,B7,−4.97
8,B8,31.28

# Same assay, conditions: Fab 10 μg/ml
row,Molecule,"percent growth inhibition, HPAFII 10 μg/ml [%]"
1,B1,21.87
2,B2,55.71
3,B3,21.81
4,B4,14.98
5,B6,−5.41
6,B7,6.47
7,B8,52.29

# System: PATU8988S cells
# Experiment: as above
# Type: cell-based, human
# Settings: Fab 10 μg/ml
# Protocol: as §2
row,Molecule,"percent growth inhibition, PATU8988s 10 μg/ml [%]"
1,B1,0.97
2,B2,−3.10
3,B3,−32.61
4,B4,−30.04
5,B6,−25.71
6,B7,−26.59
7,B8,−19.08
